In PMC6925060 (Archives of toxicology, 2017):
Positions count from the first letter of the chain named. Values belong to the molecule of their own block, whether it stands above or below them.

Legend:
[1] = molecular target: F-actin (rat, endogenous, 100,000 x g pellet) (rat (endogenous in RMC)) (UniProt P60711); assay: co-sedimentation
[2] = molecular target: human GST-cofilin (human) (UniProt P23528); assay: pull-down
cross-linking [3] = molecular target: the molecule itself; assay: cross-linking
cross-linking [4] = molecular target: the molecule itself; assay: cross-linking; remark: listed apart in the source

human GST-cofilin (human), sequence (P23528 whole entry): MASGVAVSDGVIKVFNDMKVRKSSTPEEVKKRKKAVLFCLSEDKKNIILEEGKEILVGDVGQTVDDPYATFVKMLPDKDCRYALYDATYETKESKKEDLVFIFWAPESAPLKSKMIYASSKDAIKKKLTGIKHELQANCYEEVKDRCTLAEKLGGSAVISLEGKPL

B2: adenylyl cyclase-associated protein CAP1 (rat, endogenous, monomer) (natural protein, rat (endogenous in RMC), UniProt Q08163 1-474, looked up)
chain: MADMQNLVERLERAVGRLEAVSHTSDMHCGYGDSPSKGAVPYVQAFDSLLANPVAEYLKMSKEIGGDVQKHAEMVHTGLKLERALLVTASQCQQPAGNKLSDLLAPISEQIQEVITFREKNRGSKFFNHLSAVSESIQALGWVALAAKPGPFVKEMNDAAMFYTNRVLKEYRDVDKKHVDWVRAYLSIWTELQAYIKEFHTTGLAWSKTGPVAKELSGLPSGPSVGSGPPPPPPGPPPPPVPTSSGSDDSASRSALFAQINQGESITHALKHVSDDMKTHKNPALKAQSGPVRSGPKPFSAPKPQTSPSPKPATKKEPALLELEGKKWRVENQENVSNLVIDDTELKQVAYIYKCVNTTLQIKGKINSITVDNCKKLGLVFDDVVGIVEIINSRDVKVQVMGKVPTISINKTDGCHAYLSKNSLDCEIVSAKSSEMNVLIPTEGGDFNEFPVPEQFKTLWNGQKLVTTVTEIAG
stoichiometry N (cross-linking [3]): 2

B3: His-tagged recombinant mouse CAP1 (wild type), from HEK cells (natural protein, UniProt P40124 1-474, looked up)
chain: B2 chain with V87A, V241I, P242S
binding result (cross-linking [4]): binds

Now from value to molecule:

dimer:monomer ratio in the pellet, percent of that in the supernatant [1]: 172%
Molecule: disulfide-crosslinked CAP1 dimer (rat, endogenous, from Cd2+-treated cells) (from UniProt Q08163 1-474) (complex)

dimer:monomer ratio in the pull-down, percent of that in the total lysate [2]: 220%
B1: disulfide-crosslinked CAP1 dimer (rat, endogenous, from Cd2+-treated cells) (complex)
chain: B2 chain
modifications: intermolecular disulfide crosslink, DTT-sensitive; involves Cys29 (shown by mutagenesis of mouse CAP1)
